Assay [1] has as its system H3K4me3, H3K9me3 and H3K27me3. To be noted: previously demonstrated; cited from earlier work.
In another assay the target is GST-fusion CHD4 PHD2 (Homo sapiens, UniProt Q14839). Briefly: Pull-down of GST-CHD4 PHD2 by biotinylated histone peptides in the absence of 2. In kind it is binding. The following applies: absence of 2, Western blot. A general note: A western blot detects proteins with antibodies after separation by electrophoresis.
A further assay has as its target CHD4 PHD2 finger (Homo sapiens, UniProt Q14839). The following applies: read-out: Kd of CHD4 PHD2 for histone peptide; cited from earlier work.

pKd: −log10 of the molar value.

In general, pKd refers to the Kd on a negative log10 scale, so that one unit is a factor of ten.

GST-fusion CHD4 PHD2, sequence (Q14839 449-496 limits assumed): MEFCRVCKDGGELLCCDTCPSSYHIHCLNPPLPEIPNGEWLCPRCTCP
CHD4 PHD2 finger, sequence (Q14839 449-496 limits assumed): as above

As for `O=S(=O)(O)c1cc2c(O)c(c1)Cc1cc(S(=O)(=O)O)cc(c1O)Cc1cc(S(=O)(=O)O)cc(c1O)Cc1cc(S(=O)(=O)O)cc(c1O)C2` [Compound 1, p-sulfonatocalix[4]arene], the “binding to trimethylated lysine peptides H3K4me3, H3K9me3 and H3K27me3” value in assay [1] is recorded as “equally well”.

Regarding “H3K4me3: biotinylated histone H3 peptide (residues 1–20) trimethylated at Lys4 [Compound H3K4me3]”, the “binding of GST–CHD4 PHD2 to biotinylated histone peptide” value with GST-fusion CHD4 PHD2 was “significantly weaker”. For the same compound, the pKd with CHD4 PHD2 finger is around 2.70.

Turning to “H3K27me3: biotinylated histone H3 peptide (residues 21–44) trimethylated at Lys27 [Compound H3K27me3]”, the “binding of GST–CHD4 PHD2 to biotinylated histone peptide” value in the assay with GST-fusion CHD4 PHD2 is “no interaction”.

These data come from PMC4454452 (The Biochemical journal, 2014).
